This note sets out measurements from patent US10772928B2, “Modulation and detection of a neuronal alternative splicing regulatory network for treatment and diagnosis of neurological disorders” (The Governing Council of the University of Toronto, priority 2014, dated 2020).

First the molecules themselves.
T1: nSR100 (Mus musculus, UniProt Q8BKA3)
T1 construct: host or cells: mouse N2A cells
T1 sequence (Q8BKA3 1-608): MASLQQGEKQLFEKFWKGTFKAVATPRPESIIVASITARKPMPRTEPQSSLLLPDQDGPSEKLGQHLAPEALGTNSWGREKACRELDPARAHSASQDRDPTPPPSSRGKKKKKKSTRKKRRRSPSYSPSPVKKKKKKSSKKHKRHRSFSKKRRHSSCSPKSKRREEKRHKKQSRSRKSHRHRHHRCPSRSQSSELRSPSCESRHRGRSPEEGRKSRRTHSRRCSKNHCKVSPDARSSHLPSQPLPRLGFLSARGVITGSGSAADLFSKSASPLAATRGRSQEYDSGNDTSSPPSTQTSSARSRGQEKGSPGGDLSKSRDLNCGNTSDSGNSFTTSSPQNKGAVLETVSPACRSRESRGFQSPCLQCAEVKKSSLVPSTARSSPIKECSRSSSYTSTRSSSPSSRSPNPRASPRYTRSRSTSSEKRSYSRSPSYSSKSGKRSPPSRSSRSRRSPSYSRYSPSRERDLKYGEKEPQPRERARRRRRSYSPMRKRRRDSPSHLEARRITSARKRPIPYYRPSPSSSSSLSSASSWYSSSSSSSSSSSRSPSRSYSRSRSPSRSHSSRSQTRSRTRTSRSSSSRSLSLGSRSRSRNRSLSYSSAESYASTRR

B1: Cdc5l (protein, UniProt Q6A068 1-802, looked up)
Cell division cycle 5-like …: MPRIMIKGGVWRNTEDEILKAAVMKYGKNQWSRIASLLHRKSAKQCKARWYEWLDPSIKKTEWSREEEEKLLHLAKLMPTQWRTIAPIIGRTAAQCLEHYEFLLDKTAQRDNEEETTDDPRKLKPGEIDPNPETKPARPDPIDMDEDELEMLSEARARLANTQGKKAKRKAREKQLEEARRLAALQKRRELRAAGIEIQKKRKKKRGVDYNAEIPFEKKPALGFYDTSEENYQALDADFRKLRQQDLDGELRSEKEGRDRKKDKQHLKRKKESDLPSAILQTSGVSEFTKKRSKLVLPAPQISDAELQEVVKVGQASEVARQTAEESGITNSASSTLLSEYNVTNNSIALRTPRTPASQDRILQEAQNLMALTNVDTPLKGGLNTPLHESDFSGVTPQRQVVQTPNTVLSTPFRTPSNGAEGLTPRSGTTPKPVTNATPGRTPLRDKLNINPEDGMADYSDPSYVKQMERESREHLRLGLLGLPAPKNDFEIVLPENAEKELEEREIDDTYIEDAADVDARKQAIRDAERVKEMKRMHKAVQKDLPRPSEVNETILRPLNVEPPLTDLQKSEELIKKEMITMLHYDLLHHPYEPSGNKKGKNVGFATNNSEHITYLEHSPYEKFSKEDLKKAQDALVQEMEVVKQGMSHGELSSEAYNQVWEECYSQVLYLPAQSRYTRANLASKKDRIESLEKRLEINRGHMTTEAKRAAKMEKKMKILLGGYQSRAMGLMKQLNDLWDQIEQAHLELRTFEELKKHEDSAIPRRLECLKEDVQRQQEREKELQQRYADLLMEKETLQAKF
B2: Sap18 (protein, UniProt O55128 2-153, looked up)
Histone deacetylase complex …: AVESRVTQEEIKKEPEKPIDREKTCPLLLRVFTTNNGRHHRMDEFSRGNVPSSELQIYTWMDATLKELTSLVKEVYPEARKKGTHFNFAIVFMDLKRPGYRVKEIGSTMSGRKGTDDSMTLQSQKFQIGDYLDIAITPPNRAPPSSGRMRPY
B3: Snrpb2 (protein, UniProt Q9CQI7 1-225, looked up)
U2 small nuclear …: MDIRPNHTIYINNMNDKIKKEELKRSLYALFSQFGHVVDIVALKTMKMRGQAFVIFKELGSSTNALRQLQGFPFYGKPMRIQYAKTDSDIISKMRGTFADKEKKKEKKKAKTMEQAAAAANKKPGQGTPNAANTQGTAAPNPQVPDYPPNYILFLNNLPEETNEMMLSMLFNQFPGFKEVRLVPGRHDIAFVEFENDGQAGAARDALQGFKITPSHAMKITYAKK
B4: Pgam5 (protein, UniProt Q8BX10 1-288, looked up)
Serine/threonine-protein …: MAFRQALQLAACGLAGGSAAVLFSAVAVGKPRGGGDADTRATEPPAWTGARAGRGVWDTNWDRREPLSLINLKKRNVESGEDELTSRLDHYKAKATRHIFLIRHSQYHVDGSLEKDRTLTPLGREQAELTGLRLASLGLKFNKIVHSSMTRAVETTDIISKHLPGVSRVSTDLLREGAPIEPDPPVSHWKPEAVQYYEDGARIEAAFRNYIHRADARQEEDSYEIFICHANVIRYIVCRALQFPPEGWLRLSLNNGSITHLVIRPNGRVALRTLGDTGFMPPDKITRS
B5: Ap2b1 (protein, UniProt Q9DBG3 2-937, looked up)
AP-2 complex subunit beta: TDSKYFTTNKKGEIFELKAELNNEKKEKRKEAVKKVIAAMTVGKDVSSLFPDVVNCMQTDNLELKKLVYLYLMNYAKSQPDMAIMAVNSFVKDCEDPNPLIRALAVRTMGCIRVDKITEYLCEPLRKCLKDEDPYVRKTAAVCVAKLHDINAQMVEDQGFLDSLRDLIADSNPMVVANAVAALSEISESHPNSNLLDLNPQNINKLLTALNECTEWGQIFILDCLSNYNPKDDREAQSICERVTPRLSHANSAVVLSAVKVLMKFLELLPKDSDYYNMLLKKLAPPLVTLLSGEPEVQYVALRNINLIVQKRPEILKQEIKVFFVKYNDPIYVKLEKLDIMIRLASQANIAQVLAELKEYATEVDVDFVRKAVRAIGRCAIKVEQSAERCVSTLLDLIQTKVNYVVQEAIVVIRDIFRKYPNKYESIIATLCENLDSLDEPDARAAMIWIVGEYAERIDNADELLESFLEGFHDESTQVQLTLLTAIVKLFLKKPSETQELVQQVLSLATQDSDNPDLRDRGYIYWRLLSTDPVTAKEVVLSEKPLISEETDLIEPTLLDELICHIGSLASVYHKPPNAFVEGSHGIHRKHLPIHHGSTDAGDSPVGTTTTTNLEQPQVIPSQGDLLGDLLNLDLGPPVNVPQVSSMQMGAVDLLGGGLDSLVGQSFIPSSVPATFAPSPTPAVVSSGLNDLFELSTGIGMAPGGYVAPKAVWLPAVKAKGLEISGTFTHRQGHIYMEMNFTNKALQHMTDFAIQFNKNSFGVIPSTPLAIHTPLMPNQSIDVSLPLNTLGPVMKMEPLNNLQVAVKNNIDVFYFSCLIPLNVLFVEDGKMERQVFLATWKDIPNENELQFQIKECHLNADTVSSKLQNNNVYTIAKRNVEGQDMLYQSLKLTNGIWILAELRIQPGNPNYTLSLKCRAPEVSQYIYQVYDSILKN
B6: Luc7l3 (protein, UniProt Q5SUF2 1-432, looked up)
Luc7-like protein 3: MISAAQLLDELMGRDRNLAPDEKRSNVRWDHESVCKYYLCGFCPAELFTNTRSDLGPCEKIHDENLRKQYEKSSRFMKVGYERDFLRYLQSLLAEVERRIRRGHARLALSQNQQSSGAAGPTGKNEEKIQVLTDKIDVLLQQIEELGSEGKVEEAQGMMKLVEQLKEERELLRSTTSTIESFAAQEKQMEVCEVCGAFLIVGDAQSRVDDHLMGKQHMGYAKIKATVEELKEKLRKRTEEPDRDERLKKEKQEREEREKEREREREERERKRRREEEEREKERARDRERRKRSRSRSRHSSRTSDRRCSRSRDHKRSRSRDRRRSRSRDRRRSRSHDRSERKHRSRSRDRRRSKSRDRKSYKHRSKSRDREQDRKSKEKEKKGSDDKKSSVKSSSREKQSEDTNPESKESDTKNEVNGTSEDIKSEGDTQSN
B7: Snip1 (protein, UniProt Q8BIZ6 1-383, looked up)
Smad nuclear-interacting …: MKAGKSERERSGRRRHRSGDALTTVVVKQERLSPEPVAHRRPDAPAASLSPPAAEPGHSGHRGSRARSPAKKKSKSSGRRSKSPRTKRSQSPHYPMVKVKQEREDHPRRGREDRQHREPSEQEHRRARNSERDRHRGHSRQGRSSDERPVSGQDRDRDSQNLQAQEEERDFHNARRREHRQQNESAGSEAQEVIPRPAGNRSKEVPVKEKPSFELSGALLEDTNTFRGVVIKYSEPPEARIPKKRWRLYPFKNDEVLPVMYIHRQSAYLLGRHRRIADIPIDHPSCSKQHAVFQYRLVEYTRADGTVGRRVKPYIIDLGSGNGTFLNNKRIEPQRYYELKEKDVLKFGFSSREYVLLHESSDTSELDRKEDEDDEEEEMVSDS

The first assay has as its target T1, nSR100. Kind of assay: AP-MS nSR100 interaction partners from mouse N2A cells (Table 5). It counts as binding. The conditions noted are these: bait Srrm4.
From the text: By applying affinity purification coupled to mass-spectrometry (AP-MS), several interaction nSR100 partner proteins were detected that provide insight into mechanisms of post-translational regulation of nSR100 levels.
On to B1, for which the “AvgP (average of the SAINT scores)” value worked out at 1 and the “MaxP (maximal SAINT score)” value came out at 1.

Turning to B2, the “AvgP (average of the SAINT scores)” value is given as 1 and the “MaxP (maximal SAINT score)” value is listed as 1.

On to B3, for which the “AvgP (average of the SAINT scores)” value is listed as 1 and the “MaxP (maximal SAINT score)” value is listed as 1.

As to B4, the “AvgP (average of the SAINT scores)” value is 1 and the “MaxP (maximal SAINT score)” value stood at 1.

B5: the “AvgP (average of the SAINT scores)” value is recorded as 1 and the “MaxP (maximal SAINT score)” value stood at 1.

Consider B6, for which the “AvgP (average of the SAINT scores)” value amounted to 1 and the “MaxP (maximal SAINT score)” value is 1.

For B7, the “AvgP (average of the SAINT scores)” value came to 1 and the “MaxP (maximal SAINT score)” value worked out at 1.

The assay is the same for the next values; noted with them: bait Srrm4, 0.1 added to prevent division by 0.
As to B1, the “FoldChange between the prey Avg spectra of the bait and control purifications” value (from here on “FoldChange between the prey Avg spectra”) is on record as 110.

On to B2, for which the “FoldChange between the prey Avg spectra” value was 225.

With B3, the “FoldChange between the prey Avg spectra” value is listed as 55.

With B4, the “FoldChange between the prey Avg spectra” value stood at 160.

With B5, the “FoldChange between the prey Avg spectra” value turned out to be 5.13.

As to B6, the “FoldChange between the prey Avg spectra” value stood at 7.33.

On to B7, for which the “FoldChange between the prey Avg spectra” value turned out to be 70.

The same assay, now with this note: bait Srrm4, 2 replicates.
With B1, the “AvgSpec (average number of spectra per replicate)” value stood at 11.

On to B2, for which the “AvgSpec (average number of spectra per replicate)” value stood at 22.5.

Regarding B3, the “AvgSpec (average number of spectra per replicate)” value was 5.5.

Regarding B4, the “AvgSpec (average number of spectra per replicate)” value is reported as 16.

In the case of B5, the “AvgSpec (average number of spectra per replicate)” value amounted to 79.5.

Turning to B6, the “AvgSpec (average number of spectra per replicate)” value is listed as 55.

Consider B7, for which the “AvgSpec (average number of spectra per replicate)” value is given as 7.

Still in this assay, the particulars now being: bait Srrm4, biological replicate 1 (first number of the cell), AP-MS.
As for B1, the “Spectra (number of spectra for the prey in the purification of the bait)” value came to 10.

In the case of B2, the “Spectra (number of spectra for the prey in the purification of the bait)” value is recorded as 17.

Regarding B3, the “Spectra (number of spectra for the prey in the purification of the bait)” value was found to be 6.

On to B4, for which the “Spectra (number of spectra for the prey in the purification of the bait)” value is recorded as 20.

For B5, the “Spectra (number of spectra for the prey in the purification of the bait)” value came to 83.

Turning to B6, the “Spectra (number of spectra for the prey in the purification of the bait)” value worked out at 45.

Take B7: the “Spectra (number of spectra for the prey in the purification of the bait)” value amounted to 5.

The same assay, now with this note: bait Srrm4, biological replicate 2 (second number of the cell), AP-MS.
On to B1, for which the “Spectra (number of spectra for the prey in the purification of the bait)” value is 12.

In the case of B2, the “Spectra (number of spectra for the prey in the purification of the bait)” value was 28.

For B3, the “Spectra (number of spectra for the prey in the purification of the bait)” value amounted to 5.

For the molecule B4, the “Spectra (number of spectra for the prey in the purification of the bait)” value is on record as 12.

Take B5: the “Spectra (number of spectra for the prey in the purification of the bait)” value was 76.

Take B6: the “Spectra (number of spectra for the prey in the purification of the bait)” value is 65.

With B7, the “Spectra (number of spectra for the prey in the purification of the bait)” value was 9.

The assay is the same for the next values; noted with them: bait Srrm4, sum of spectra over 2 replicates.
B1 had a SpecSum of 22.

Take B2: the SpecSum worked out at 45.

With B3, the SpecSum was determined as 11.

Turning to B4, the SpecSum worked out at 32.

B5 yielded a SpecSum of 159.

The molecule B6 yielded a SpecSum of 110.

B7 had a SpecSum of 14.
